Measured values from patent US20190112393 (published 2019).

Target: human FcRn (human)
Assay: SPR, pH 6.0

Row | Binder | Kd
1 | F1382 (antibody) chain 1: QVQLQESGPGLVKPSETLSLTCAVSGHSISHDHAWSWVRQPPGEGLEWIGFISYSGITNYNPSLQGRVTISRDNSKNTLYLQMNSLRAEDTAVYYCARSLARTTAMDYWGEGTLVTVSSASTKGPSVFPLAPSSKSTSGGTAALGCLVKDYFPEPVTVSWNSGALTSGVHTFPAVLQSSGLYSLSSVVTVPSSSLGTQTYICNVNHKPSNTKVDKKVEPKSCDKTHTCPPCPAPELLGGPSVFLFPPKPKDTLMISRTPEVTCVVVDVSHEDPEVKFNWYVDGVEVHNAKTKPREEQYNSTYRVVSVLTVLHQDWLNGKEYKCKVSNKALPAPIEKTISKAKGQPREPQVYTLPPSRDELTKNQVSLTCLVKGFYPSDIAVEWESNGQPENNYKTTPPVLDSDGSFFLYSKLTVDKSRWQQGNVFSCKVLHEALHSHYTQKSLSLSP chain 2: DIQMTQSPSSLSASVGDSVTITCQASTDISSHLNWYQQKPGKAPELLIYYGSHLLSGVPSRFSGSGSGTDFTFTISSLEAEDAATYYCGQGNRLPYTFGQGTKVEIERTVAAPSVFIFPPSDEQLKSGTASVVCLLNNFYPREAKVQWKVDNALQSGNSQESVTEQDSKDSTYSLSSTLTLSKADYEKHKVYACEVTHQGLSSPVTKSFNRGEC | 130 nM
2 | F1391 (antibody) chain 1: QVQLQESGPGLVKPSETLSLTCAVSGHSISHDHAWSWVRQPPGEGLEWIGFISYSGITNYNPSLQGRVTISRDNSKNTLYLQMNSLRAEDTAVYYCARSLARTTAMDYWGEGTLVTVSSASTKGPSVFPLAPSSKSTSGGTAALGCLVKDYFPEPVTVSWNSGALTSGVHTFPAVLQSSGLYSLSSVVTVPSSSLGTQTYICNVNHKPSNTKVDKKVEPKSCDKTHTCPPCPAPELLGGPSVFLFPPKPKDTLMISRTPEVTCVVVDVSHEDPEVKFNWYVDGVEVHNAKTKPREEQYNSTYRVVSVLTVLHQDWLNGKEYKCKVSNKALPAPIEKTISKAKGQPREPQVYTLPPSRDELTKNQVSLTCLVKGFYPSDIAVEWESNGQPENNYKTTPPVLDSDGSFFLYSKLTVDKSRWQQGNVFSCSVLHEALHSHNTQKSLSLSP chain 2: DIQMTQSPSSLSASVGDSVTITCQASTDISSHLNWYQQKPGKAPELLIYYGSHLLSGVPSRFSGSGSGTDFTFTISSLEAEDAATYYCGQGNRLPYTFGQGTKVEIERTVAAPSVFIFPPSDEQLKSGTASVVCLLNNFYPREAKVQWKVDNALQSGNSQESVTEQDSKDSTYSLSSTLTLSKADYEKHKVYACEVTHQGLSSPVTKSFNRGEC | 420 nM
3 | F1389 (antibody) chain 1: QVQLQESGPGLVKPSETLSLTCAVSGHSISHDHAWSWVRQPPGEGLEWIGFISYSGITNYNPSLQGRVTISRDNSKNTLYLQMNSLRAEDTAVYYCARSLARTTAMDYWGEGTLVTVSSASTKGPSVFPLAPSSKSTSGGTAALGCLVKDYFPEPVTVSWNSGALTSGVHTFPAVLQSSGLYSLSSVVTVPSSSLGTQTYICNVNHKPSNTKVDKKVEPKSCDKTHTCPPCPAPELLGGPSVFLFPPKPKDTLMISRTPEVTCVVVDVSHEDPEVKFNWYVDGVEVHNAKTKPREEQYNSTYRVVSVLTVLHQDWLNGKEYKCKVSNKALPAPIEKTISKAKGQPREPQVYTLPPSRDELTKNQVSLTCLVKGFYPSDIAVEWESNGQPENNYKTTPPVLDSDGSFFLYSKLTVDKSRWQQGNVFSCSVLHEALHSHTTQKSLSLSP chain 2: DIQMTQSPSSLSASVGDSVTITCQASTDISSHLNWYQQKPGKAPELLIYYGSHLLSGVPSRFSGSGSGTDFTFTISSLEAEDAATYYCGQGNRLPYTFGQGTKVEIERTVAAPSVFIFPPSDEQLKSGTASVVCLLNNFYPREAKVQWKVDNALQSGNSQESVTEQDSKDSTYSLSSTLTLSKADYEKHKVYACEVTHQGLSSPVTKSFNRGEC | 68 nM
4 | F1387 (antibody) chain 1: QVQLQESGPGLVKPSETLSLTCAVSGHSISHDHAWSWVRQPPGEGLEWIGFISYSGITNYNPSLQGRVTISRDNSKNTLYLQMNSLRAEDTAVYYCARSLARTTAMDYWGEGTLVTVSSASTKGPSVFPLAPSSKSTSGGTAALGCLVKDYFPEPVTVSWNSGALTSGVHTFPAVLQSSGLYSLSSVVTVPSSSLGTQTYICNVNHKPSNTKVDKKVEPKSCDKTHTCPPCPAPELLGGPSVFLFPPKPKDTLMISRTPEVTCVVVDVSHEDPEVKFNWYVDGVEVHNAKTKPREEQYNSTYRVVSVLTVLHQDWLNGKEYKCKVSNKALPAPIEKTISKAKGQPREPQVYTLPPSRDELTKNQVSLTCLVKGFYPSDIAVEWESNGQPENNYKTTPPVLDSDGSFFLYSKLTVDKSRWQQGNVFSCSVLHEALHSHMTQKSLSLSP chain 2: DIQMTQSPSSLSASVGDSVTITCQASTDISSHLNWYQQKPGKAPELLIYYGSHLLSGVPSRFSGSGSGTDFTFTISSLEAEDAATYYCGQGNRLPYTFGQGTKVEIERTVAAPSVFIFPPSDEQLKSGTASVVCLLNNFYPREAKVQWKVDNALQSGNSQESVTEQDSKDSTYSLSSTLTLSKADYEKHKVYACEVTHQGLSSPVTKSFNRGEC | 150 nM

Further binders by falling Kd, results first:

Row | Kd | Binder
5 | 160 nM | F1386 (antibody) chain 1: QVQLQESGPGLVKPSETLSLTCAVSGHSISHDHAWSWVRQPPGEGLEWIGFISYSGITNYNPSLQGRVTISRDNSKNTLYLQMNSLRAEDTAVYYCARSLARTTAMDYWGEGTLVTVSSASTKGPSVFPLAPSSKSTSGGTAALGCLVKDYFPEPVTVSWNSGALTSGVHTFPAVLQSSGLYSLSSVVTVPSSSLGTQTYICNVNHKPSNTKVDKKVEPKSCDKTHTCPPCPAPELLGGPSVFLFPPKPKDTLMISRTPEVTCVVVDVSHEDPEVKFNWYVDGVEVHNAKTKPREEQYNSTYRVVSVLTVLHQDWLNGKEYKCKVSNKALPAPIEKTISKAKGQPREPQVYTLPPSRDELTKNQVSLTCLVKGFYPSDIAVEWESNGQPENNYKTTPPVLDSDGSFFLYSKLTVDKSRWQQGNVFSCYVLHEALHSHYTQKSLSLSP chain 2: DIQMTQSPSSLSASVGDSVTITCQASTDISSHLNWYQQKPGKAPELLIYYGSHLLSGVPSRFSGSGSGTDFTFTISSLEAEDAATYYCGQGNRLPYTFGQGTKVEIERTVAAPSVFIFPPSDEQLKSGTASVVCLLNNFYPREAKVQWKVDNALQSGNSQESVTEQDSKDSTYSLSSTLTLSKADYEKHKVYACEVTHQGLSSPVTKSFNRGEC
6 | 86 nM | F1381 (antibody) chain 1: QVQLQESGPGLVKPSETLSLTCAVSGHSISHDHAWSWVRQPPGEGLEWIGFISYSGITNYNPSLQGRVTISRDNSKNTLYLQMNSLRAEDTAVYYCARSLARTTAMDYWGEGTLVTVSSASTKGPSVFPLAPSSKSTSGGTAALGCLVKDYFPEPVTVSWNSGALTSGVHTFPAVLQSSGLYSLSSVVTVPSSSLGTQTYICNVNHKPSNTKVDKKVEPKSCDKTHTCPPCPAPELLGGPSVFLFPPKPKDTLMISRTPEVTCVVVDVSHEDPEVKFNWYVDGVEVHNAKTKPREEQYNSTYRVVSVLTVLHQDWLNGKEYKCKVSNKALPAPIEKTISKAKGQPREPQVYTLPPSRDELTKNQVSLTCLVKGFYPSDIAVEWESNGQPENNYKTTPPVLDSDGSFFLYSKLTVDKSRWQQGNVFSCEVLHEALHSHYTQKSLSLSP chain 2: DIQMTQSPSSLSASVGDSVTITCQASTDISSHLNWYQQKPGKAPELLIYYGSHLLSGVPSRFSGSGSGTDFTFTISSLEAEDAATYYCGQGNRLPYTFGQGTKVEIERTVAAPSVFIFPPSDEQLKSGTASVVCLLNNFYPREAKVQWKVDNALQSGNSQESVTEQDSKDSTYSLSSTLTLSKADYEKHKVYACEVTHQGLSSPVTKSFNRGEC
